Data as given in US20250051409A1, “MODULATORS OF PHOSPHATIDYLSERlNE DECARBOXYLASE AND USE THEREOF” (THE NATIONAL INSTITUTE FOR BIOTECHNOLOGY IN THE NEGEV LTD., priority 2021, published 2025).
Ends that are not written are not given here.

Assays:
[1] = molecular target: T1, Purified recombinant protein (full length) of human phosphatidylserine decarboxylase (PSD), with N-terminal His tag, expressed in E. coli (Acris-OriGene) (human); experiment: cell-based or functional assay
T1 sequence (chain, fluorescently labelled in the MST assay with the peptides): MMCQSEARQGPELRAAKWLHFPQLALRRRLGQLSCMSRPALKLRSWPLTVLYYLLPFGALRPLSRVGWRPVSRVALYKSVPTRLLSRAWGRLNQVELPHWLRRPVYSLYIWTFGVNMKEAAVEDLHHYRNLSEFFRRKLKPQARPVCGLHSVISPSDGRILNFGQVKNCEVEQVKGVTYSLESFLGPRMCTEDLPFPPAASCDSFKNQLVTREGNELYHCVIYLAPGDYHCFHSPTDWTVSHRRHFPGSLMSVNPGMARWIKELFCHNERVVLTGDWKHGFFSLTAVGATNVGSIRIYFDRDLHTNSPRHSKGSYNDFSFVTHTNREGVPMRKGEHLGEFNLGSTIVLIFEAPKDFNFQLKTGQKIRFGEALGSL

[2] = molecular target: T1, Purified recombinant protein (full length) of human phosphatidylserine decarboxylase (PSD), with N-terminal His tag, expressed in E. coli (Acris-OriGene) (human); experiment: microscale thermophoresis; fluorescently labelled PSD (0.25 µM) with peptide (1-10 µM)
[3] = molecular target: T1, Purified recombinant protein (full length) of human phosphatidylserine decarboxylase (PSD), with N-terminal His tag, expressed in E. coli (Acris-OriGene) (human); experiment: MST, fluorescently labelled purified PSD 0.25 µM, peptide titrated 1-10 µM

Binder: ALSTSSPIPSVPQSQAQPQTGSGAS [peptide 2F3, derived from MAML2]
- inhibition of PSD activity (DSB-3 method) [1]: 1 µM
- Kd [2]: 3000 nM
- EC50 (read off the curve) [3]: 3000 nM

Binder: ALLTSGTSDPRARVTYGTPSLWARL (not fully specified) [peptide 1C11, derived from HTRA2]
- inhibition of PSD activity (DSB-3 method) [1]: 1 µM
- Kd [2]: 3000 nM
- EC50 (read off the curve) [3]: 4000 nM
